Measurements reported in PMC3621905.

Assays:
[1] = target: Mouse TASK-3 (mKCNK9), untagged (mouse) (UniProt Q3LS21)
[2] = target: HA-mKCNK9 (mouse TASK-3, HA-tagged) (mouse) (UniProt Q3LS21); experiment: co-IP; DPP6 and TASK-3 co-expressed with one of them HA-tagged; membrane fraction solubilised in TNE buffer (50 mM TRIS, 150 mM NaCl, 1 mM EDTA, pH 7.4, 1% Triton X-100), precleared with mouse IgG agarose, incubated 16 h at 4°C with anti-HA agarose (clone HA-7); Western blot with anti-DPP6 or anti-KCNK9; Co-IP ratio = fraction precipitated indirectly when untagged divided by fraction precipitated directly when tagged
[3] = target: HA-DPP6K (mouse dipeptidyl peptidase-like protein 6, N-terminal variant K, HA-tagged) (mouse); experiment: as above

Substance | resting membrane conductance of CHO-K1 cells co-expressing DPP6 with TASK-3, against TASK-3 alone (voltage clamp) [1] | Co-IP ratio (percent of the protein that could be directly precipitated) [2] | Co-IP ratio (percent of the protein that could be directly precipitated) [3]
DPP6K (mouse dipeptidyl peptidase-like protein 6, N-terminal variant K), untagged (natural protein) | 2.3 fold | 31.4% | 
Mouse TASK-3 (mKCNK9), untagged (from UniProt Q3LS21 1-402) (natural protein) |  |  | 31.4%
